Data as given in the supplement of paper PMC10724198.
± gives the standard deviation of the averaged measurements.

Tests used:
[1] = test system: Saccharomyces cerevisiae; test: protein stability index of tFT-peptide fusion (C-terminal peptide) (PSI (0-1 scale)); higher = more stable (slower turnover); settings: genetic background: wild type; temperature: 30 C
[2] = test system: Saccharomyces cerevisiae; test: as above
Procedure: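 MPS profiling in S. cerevisiae of the tFT-X12 degron library: putative degron peptides plus stable controls, 12 aa, fused to the C-terminus of a sfGFP-mCherry timer. Cells are FACS-sorted into 8 mCherry/sfGFP bins and deep-sequenced. PSI runs from 0 (unstable) to 1 (stable). Backgrounds are wild type, das1Δ and doa10Δ at 30 °C, and wild type, das1Δ, cdc34-1 and cdc53-1 at 37 °C; 2-3 technical replicates each.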

[3] = genetic background: cdc34-1, temperature: 37 C
[4] = genetic background: cdc53-1, temperature: 37 C
[5] = genetic background: das1 deletion, temperature: 30 C
[6] = genetic background: das1 deletion, temperature: 37 C
[7] = genetic background: doa10 deletion, temperature: 30 C
[8] = genetic background: wild type, temperature: 30 C
[9] = genetic background: wild type, temperature: 37 C
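Note: PSI is a weighted mean of sequencing reads over stability bins, variants kept only with over 10 reads, mCherry proximal and sfGFP distal, peptide attached via GGGS linker.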

Sequence	protein stability index [1]	protein stability index [2, 3]	protein stability index [2, 4]	protein stability index [2, 5]	protein stability index [2, 6]	protein stability index [2, 7]	protein stability index [2, 8]	protein stability index [2, 9]
VIWIRMISFFVW	0.245 ± 0.015	0.192 ± 0.035	0.283 ± 0.024	0.2 ± 0.043	0.35 ± 0.013	0.174 ± 0.01	0.188 ± 0.034	0.346 ± 0.048
VTFCFLFVWFLV	0.283 ± 0.048	0.269 ± 0.004	0.378 ± 0.018	0.27 ± 0.028	0.413 ± 0.0092	0.23 ± 0.015	0.226 ± 0.012	0.345 ± 0.013
NRFRLFRLNFSV	0.302 ± 0.015	0.68 ± 0.042	0.724 ± 0.052	0.606 ± 0.02	0.751 ± 0.014	0.161 ± 0.0037	0.168 ± 0.024	0.36 ± 0.049
FRDRFLRWNLVS	0.223 ± 0.022	0.481 ± 0.073	0.676 ± 0.013	0.6489 ± 0.0058	0.757 ± 0.025	0.129 ± 0.026	0.14 ± 0.025	0.21 ± 0.02
CHFLLPFLFTCA	0.332 ± 0.006	0.225 ± 0.027	0.28 ± 0.0099	0.244 ± 0.043	0.3685 ± 0.00097	0.1949 ± 0.0015	0.221 ± 0.024	0.309 ± 0.0071
GCGWVFWVVDWG	0.4431 ± 0.0038	0.463 ± 0.017	0.566 ± 0.0098	0.402 ± 0.028	0.563 ± 0.0075	0.369 ± 0.01	0.398 ± 0.027	0.539 ± 0.026
DILQITNIKQKR	0.572 ± 0.16	0.71 ± 0.041	0.741 ± 0.015	0.676 ± 0.038	0.731 ± 0.021	0.654 ± 0.014	0.654 ± 0.014	0.722 ± 0.039
KAEKNSKKTSTE	0.698 ± 0.044	0.685 ± 0.073	0.721 ± 0.013	0.658 ± 0.064	0.68229 ± 0.0003	0.633 ± 0.031	0.649 ± 0.033	0.702 ± 0.021
GLFCCFLCLSVF	0.261 ± 0.015	0.241 ± 0.0047	0.297 ± 0.018	0.241 ± 0.041	0.343 ± 0.015	0.2 ± 0.004	0.204 ± 0.026	0.275 ± 0.017
FCIIVFYIFVGI	0.382 ± 0.041	0.451 ± 0.061	0.506 ± 0.078	0.342 ± 0.027	0.48 ± 0.077	0.323 ± 0.024	0.333 ± 0.022	0.486 ± 0.042
VVSGLNYCLVLS	0.3917 ± 0.0038	0.48 ± 0.033	0.48 ± 0.029	0.29 ± 0.042	0.523 ± 0.006	0.276 ± 0.013	0.28 ± 0.039	0.4829 ± 0.0021
PPPRSLSPPLLS	0.409 ± 0.0037	0.642 ± 0.0076	0.7372 ± 0.0019	0.643 ± 0.025	0.704 ± 0.0013	0.6711 ± 0.0062	0.659 ± 0.014	0.681 ± 0.023
YGWGFLFILTLM	0.182 ± 0.01	0.15 ± 0.032	0.153 ± 0.03	0.262 ± 0.038	0.317 ± 0.0042	0.14 ± 0.024	0.101 ± 0.018	0.151 ± 0.016
AEIVCLTDGLLF	0.5 ± 0.2	0.715 ± 0.012	0.758 ± 0.038	0.623 ± 0.013	0.7252 ± 0.0028	0.641 ± 0.028	0.665 ± 0.024	0.707 ± 0.0076
VLGRCWWIVSDL	0.566 ± 0.19	0.736 ± 0.037	0.782 ± 0.011	0.661 ± 0.016	0.763 ± 0.015	0.659 ± 0.025	0.67 ± 0.024	0.755 ± 0.0049
